Reference: patent publication US20090311271A1 (Pfizer, published 2009)

Key:
[1] = target: T1, recombinant mouse LOX-1 Fc protein (mouse, UniProt Q9EQ09 55-363, limits assumed); test: AlphaScreen competition: antibody against Bio-oxLDL binding to mFc-mLOX1
T1 construct: The order Fc then LOX-1 is read from the label mFc-mLOX1; also called mFc-mLOX1; not shown: Fc part (label 'mFc')

[2] = target: T1, recombinant mouse LOX-1 Fc protein; test: as above; remark: listed apart in the source
[3] = target: T1, recombinant mouse LOX-1 Fc protein; test: AlphaScreen competition: antibody against Bio-CRP binding to mFc-mLOX1; Bio-CRP + mFc-mLOX1 competition, not Bio-oxLDL
[4] = target: T1, recombinant mouse LOX-1 Fc protein; test: AlphaScreen competition: antibody against Bio-CRP binding to mFc-mLOX1
[5] = target: T2, human LOX-1 expressed on the cell surface (human, UniProt P78380 1-273); test: flow cytometry, CRP on CHO/LOX-1 cells, detected with rabbit anti-CRP antibody; FACS on CHO/LOX-1 cells, 4 C
T2 construct: whole, on cells; also called CHO/LOX-1; CHO-LOX-1
Protocol: (§1) Cells were analyzed using a Becton Dickinson FACSCalibur® flow cytometer with CellQuest software (Becton Dickinson). Results are presented as the geometric mean fluorescence intensity (MFI).

[6] = target: T2, human LOX-1 expressed on the cell …; test: flow cytometry, CRP on LOX/CHO cells
Protocol: as §1

[7] = target: T2, human LOX-1 expressed on the cell …; test: flow cytometry: CRP (0-200 ug/ml) on CHO/LOX-1 cells, 60 min at 4 C, rabbit anti-CRP and labelled secondary antibody, MFI
Protocol: as §1

T1 sequence (Q9EQ09 55-363 limits assumed): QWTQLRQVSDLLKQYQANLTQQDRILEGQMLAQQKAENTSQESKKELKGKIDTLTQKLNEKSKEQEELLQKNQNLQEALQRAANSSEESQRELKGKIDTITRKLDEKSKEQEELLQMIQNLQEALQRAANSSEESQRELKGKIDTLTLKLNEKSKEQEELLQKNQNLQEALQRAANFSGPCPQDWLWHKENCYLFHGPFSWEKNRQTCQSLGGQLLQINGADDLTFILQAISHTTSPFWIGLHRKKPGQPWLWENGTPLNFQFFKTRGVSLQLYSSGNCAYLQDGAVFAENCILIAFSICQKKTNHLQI

| Binder | IC50 [1] [µg/mL] | IC50 [2] [µg/mL] | IC50 [3] [µg/mL] | IC50 [4] [µg/mL] | Kd [5] [µg/mL] | Kd [6] [nM] | Kd [7] [µg/mL] |
| --- | --- | --- | --- | --- | --- | --- | --- |
| LOX1-11A2 (antibody, V domains shown, Rat anti-mouse LOX-1 monoclonal antibody; also called rat anti-mouse LOX-1 antibody 11A2) VH: EEQLVESGGGLVQPGGSLKLSCLASGFTLSNYGMNWIRQAPGKGLEWVASISSSSSYFYYADTVKGRFTISREDAKNTLNLQMTSLRSEDTALYYCARGITIAAGFTMDAWGQGTSVTVSS VL: DIQMTQSPTSLSASLGETVSIECRASEDIYNNLAWYQQKSGKSPQLLIYYASTLQDGVPSRFSGSGSGTQFSLKISGMQPEDEGLYYCLQGSKYPRTFGGGTKLELKR | 0.127 | 0.127 |  |  |  |  |  |
| LOX1-33F1 (antibody, V domains shown, Rat anti-mouse LOX-1 monoclonal antibody; also called rat anti-mouse LOX-1 antibody 33F1) VH: QVQLKESGPGLVQPSQTLSLTCTVSGFSLTSHAVNWVRQPPGKGLEWIGAIWSGGTTDYNSGFRSRLSISRDTSKSQVLLKMNSLQTEDTAMYFCARGYDGYYYYAMDVWGQGTSVTVSS VL: DIVMTQSPSSLAVSAGETVTINCKSSQSLLSSRNQKNYLAWYQQKPGQSPKLLIYLASTRESGVPDRFIGSGSGTDFTLTITSVQAEDLADYYCQQHYNYYTFGAGTKLELKR | 0.03 | 0.03 | 0.193 | 0.193 |  |  |  |
| purified recombinant human CRP (ligand, UniProt P02741 19-224, looked up, biotin label in the AlphaScreen assays (biotin-CRP); unlabelled in ELISA and cell assays, Bought protein; also called C-reactive protein; biotin-CRP) QTDMSRKAFVFPKESDTSYVSLKAPLTKPLKAFTVCLHFYTELSSTRGYSIFSYATKRQDNEILIFWSKDIGYSFTVGGSEILFEVPEVTVAPVHICTSWESASGIVEFWVDGKPRVRKSLKKGYTVGAEASIILGQEQDSFGGNFEGSQSLVGDIGNVNMWDFVLSPDEINTIYLGGPFSPNVLNWRALKYEVQGEVFTKPQLWP |  |  |  |  | 86 | 747 | 86.6 |
